The record followed here is paper doi:10.1101/2023.08.28.555152.

What is called Kd is the free concentration of one partner at which half of the binding sites on the other are occupied at equilibrium, for simple one-to-one binding.

Read-outs that look alike come from different tables or passages of the source.

What all share (assay): MST
In experiment [1] the target is FITC-labeled IST1 (recombinant full-length IST1).
Experiment [2] has the same target. This is another data set of the same source.
The target is the same in experiment [3]. The source holds these as a separate data set.

B1: CHMP1B (recombinant full length) (natural protein)
chain: MSNMEKHLFNLKFAAKELSRSAKKCDKEEKAEKAKIKKAIQKGNMEVARIHAENAIRQKNQAVNFLRMSARVDAVAARVQTAVTMGKVTKSMAGVVKSMDATLKTMNLEKISALMDKFEHQFETLDVQTQQMEDTMSSTTTLTTPQNQVDMLLQEMADEAGLDLNMELPQGQTGSVGTSVASAEQDELSQRLARLRDQV
For the molecule B1, the Kd in experiment [1] is 20.3 µM; in experiment [2], 153 µM; in experiment [3], 9 µM.
